# The supplement of paper PMC6757056
# ± gives the standard deviation of the averaged measurements.
# B1: library; a variant is named by its letters at N, in order (parent)
# chain: GCUGUCACCGGUGUAUUACCCUAGUGGUCGACCGGUCUGAUGAGUCUNNNNNNAGACGAAACAGC
# Tests used:
# [1] = variants of: B1; assay: FACS-Seq fitted mean relative fluorescence mCherry/BFP without ligand (log10 relative fluorescence); ligand: hypoxanthine (xanthine aptamer); higher = higher reporter protein expression; settings: HEK293T, ligand present: no
# In short: (§1)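 Cells were sorted into 6 bins on the mCherry/BFP ratio after 48 h with or without ligand. These were enriched HEK293T cells transduced by lentivirus with a ribozyme-switch mCherry reporter plus an EF1α-BFP marker. Fluorescence was obtained by fitting a normal distribution to sequencing-derived bin counts. Counts came from MiSeq sequencing of PCR-amplified, barcoded genomic DNA, binned by log10(mCherry/BFP), with means scaled to five spiked-in control ribozymes.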
# [2] = variants of: B1; assay: normalized RNA/DNA level with ligand (relative to sTRSVctl = 100) (log10 (% of sTRSVctl)); ligand: hypoxanthine (xanthine aptamer); higher = less ribozyme self-cleavage, higher mRNA level; settings: ligand concentration (+) RNA-Seq: 5 mM, HEK293T, reporter: mCherry (pCS4076), ligand present: yes
# In short: (§2)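 Total RNA, extracted with EDTA 72 h after HEK293T cells were transfected with 4 µg per 6-well well of reporter-linked ribozyme switch library plasmids, was reverse-transcribed, amplified, barcoded and sequenced. Ligand, if used, was added 1 h before transfection. RNA level was derived from RNA reads divided by DNA reads and normalized to a spiked-in non-cleaving sequence or to the top sequences. This was multiplied by 100 and log10-transformed, with the top set of 25 sequences and a ≥100 DNA read minimum.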
# [3] = variants of: B1; assay: normalized RNA/DNA level without ligand (relative to sTRSVctl = 100) (log10 (% of sTRSVctl)); ligand: hypoxanthine (xanthine aptamer); higher = less ribozyme self-cleavage, higher mRNA level; settings: HEK293T, reporter: mCherry (pCS4076), ligand present: no
# In short: as §2
# [4] = variants of: B1; assay: FACS-Seq fitted mean relative fluorescence mCherry/BFP with ligand (log10 relative fluorescence); ligand: hypoxanthine (xanthine aptamer); ligand concentration (+) FACS-Seq: 5 mM; higher = higher reporter protein expression; settings: HEK293T, ligand present: yes
# In short: as §1
Variant,FACS-Seq fitted mean (log10) [1],normalized RNA/DNA level with ligand (log10) [2],normalized RNA/DNA level without ligand (log10) [3],FACS-Seq fitted mean (log10) [4]
GCUGUCACCGGUGUAUUACCCUAGUGGUCGACCGGUCUGAUGAGUCUUUUUGAAGACGAAACAGC,0.455 ± 0.043,1.98 ± 0.031,1.63 ± 0.023,0.5 ± 0.019
GCUGUCACCGGUGUAUUACCCUAGUGGUCGACCGGUCUGAUGAGUCUUUUUCCAGACGAAACAGC,-0.155 ± 0.032,1.94 ± 0.03,1.935 ± 0.013,0.362 ± 0.077
GCUGUCACCGGUGUAUUACCCUAGUGGUCGACCGGUCUGAUGAGUCUAUUGGGAGACGAAACAGC,0.0996 ± 0.0053,1.87 ± 0.085,1.36 ± 0.03,0.592 ± 0.018
GCUGUCACCGGUGUAUUACCCUAGUGGUCGACCGGUCUGAUGAGUCUAUUGGUAGACGAAACAGC,0.357 ± 0.04,1.89 ± 0.048,1.66 ± 0.084,0.601 ± 0.029
GCUGUCACCGGUGUAUUACCCUAGUGGUCGACCGGUCUGAUGAGUCUCUUGGAAGACGAAACAGC,0.708 ± 0.039,1.95 ± 0.032,1.85 ± 0.02,0.705 ± 0.086
GCUGUCACCGGUGUAUUACCCUAGUGGUCGACCGGUCUGAUGAGUCUGUUUCCAGACGAAACAGC,0.703 ± 0.042,1.95 ± 0.089,2.03 ± 0.06,0.641 ± 0.02
GCUGUCACCGGUGUAUUACCCUAGUGGUCGACCGGUCUGAUGAGUCUCUUUAGAGACGAAACAGC,0.52 ± 0.017,2.02 ± 0.036,1.808 ± 0.017,0.386 ± 0.085
GCUGUCACCGGUGUAUUACCCUAGUGGUCGACCGGUCUGAUGAGUCUCUUUAUAGACGAAACAGC,0.0718 ± 0.034,1.88 ± 0.098,1.78 ± 0.028,0.344 ± 0.07
GCUGUCACCGGUGUAUUACCCUAGUGGUCGACCGGUCUGAUGAGUCUCUUUCAAGACGAAACAGC,0.608 ± 0.077,1.918 ± 0.0052,1.89 ± 0.041,0.565 ± 0.017
GCUGUCACCGGUGUAUUACCCUAGUGGUCGACCGGUCUGAUGAGUCUAUUGUGAGACGAAACAGC,0.0887 ± 0.00064,1.8 ± 0.023,1.39 ± 0.034,0.469 ± 0.1
GCUGUCACCGGUGUAUUACCCUAGUGGUCGACCGGUCUGAUGAGUCUUUUUAUAGACGAAACAGC,0.589 ± 0.097,1.96 ± 0.018,1.85 ± 0.06,0.296 ± 0.011
GCUGUCACCGGUGUAUUACCCUAGUGGUCGACCGGUCUGAUGAGUCUUUUGUGAGACGAAACAGC,0.449 ± 0.0072,1.954 ± 0.015,1.76 ± 0.031,0.537 ± 0.024
GCUGUCACCGGUGUAUUACCCUAGUGGUCGACCGGUCUGAUGAGUCUGUUGGGAGACGAAACAGC,0.375 ± 0.11,1.89 ± 0.025,1.52 ± 0.029,0.635 ± 0.028
GCUGUCACCGGUGUAUUACCCUAGUGGUCGACCGGUCUGAUGAGUCUAUUUGCAGACGAAACAGC,0.485 ± 0.047,1.91 ± 0.043,1.783 ± 0.0061,0.704 ± 0.052
GCUGUCACCGGUGUAUUACCCUAGUGGUCGACCGGUCUGAUGAGUCUAUUUGAAGACGAAACAGC,0.636 ± 0.085,1.91 ± 0.033,1.6633 ± 0.00044,0.602 ± 0.16
GCUGUCACCGGUGUAUUACCCUAGUGGUCGACCGGUCUGAUGAGUCUAUUUAAAGACGAAACAGC,0.629 ± 0.027,1.901 ± 0.019,1.81 ± 0.051,0.649 ± 0.015
GCUGUCACCGGUGUAUUACCCUAGUGGUCGACCGGUCUGAUGAGUCUGUUUAAAGACGAAACAGC,0.00874 ± 0.0085,1.917 ± 0.0057,1.83 ± 0.03,0.204 ± 0.078
GCUGUCACCGGUGUAUUACCCUAGUGGUCGACCGGUCUGAUGAGUCUGUUUAGAGACGAAACAGC,0.256 ± 0.013,1.81 ± 0.023,1.464 ± 0.013,0.65 ± 0.013
GCUGUCACCGGUGUAUUACCCUAGUGGUCGACCGGUCUGAUGAGUCUGUUGUAAGACGAAACAGC,0.455 ± 0.0078,1.9 ± 0.025,1.84 ± 0.032,0.632 ± 0.012
GCUGUCACCGGUGUAUUACCCUAGUGGUCGACCGGUCUGAUGAGUCUGUUGUGAGACGAAACAGC,0.225 ± 0.066,1.83 ± 0.042,1.39 ± 0.028,0.406 ± 0.14
GCUGUCACCGGUGUAUUACCCUAGUGGUCGACCGGUCUGAUGAGUCUGUUGUUAGACGAAACAGC,0.56 ± 0.026,1.969 ± 0.0045,1.9 ± 0.029,0.67542 ± 0.00062
